Data from the RNAGym collection of RNA variant scans (doi:10.7554/elife.90254).

B1: LINE1-mini (parent)
chain: GGCAGAGCUCAACACAGCGUGGCAAAGUGGCUGUGGCUAGACUGCC

Variants of: B1
Assay: self-cleavage, relative activity (ratio to wild type); higher = more cleavage; in vitro, sequencing; the parent is a self-cleaving ribozyme

In order of rising self-cleavage:
1. CGCAGAGCUCAACACAGCGUGGCAAAGUGGCUGUGCCUAGACUGCC [G1C G36C]  0.01
2. UGCAGAGCUCGACACAGCGUGGCAAAGUGGCUGUGGCUAGACUGCC [G1U A11G]  0.02
3. CGCAGAGCUCAACACAGCGUGGCAAAGUGGCUGUCGCUAGACUGCC [G1C G35C]  0.02
4. CGCAGAGCGCAACACAGCGUGGCAAAGUGGCUGUGGCUAGACUGCC [G1C U9G]  0.02
5. CGCAGAGCACAACACAGCGUGGCAAAGUGGCUGUGGCUAGACUGCC [G1C U9A]  0.02
6. CGCAGAGCUCAACACAGCGUGGCAAAGUGGCUGUGGCUAUACUGCC [G1C G40U]  0.02
7. UGCAGAGCUCACCACAGCGUGGCAAAGUGGCUGUGGCUAGACUGCC [G1U A12C]  0.02
8. UGCAGAGCUCAACACAGCGUGGCAAAGUGGCUGUGGGUAGACUGCC [G1U C37G]  0.03
9. CGCAGAGCUCAACACAGCGUGGCAAAGUGGCUGUGUCUAGACUGCC [G1C G36U]  0.03
10. UGCAGAGCUCCACACAGCGUGGCAAAGUGGCUGUGGCUAGACUGCC [G1U A11C]  0.03
11. CGCAGAGCUCAACACAGCGUGGCAAAGUGGCUGUAGCUAGACUGCC [G1C G35A]  0.03
12. CGCAGAGCUCAACACAGCGUGGCAAAGUGGCUGUUGCUAGACUGCC [G1C G35U]  0.03
13. CGCAGAGCCCAACACAGCGUGGCAAAGUGGCUGUGGCUAGACUGCC [G1C U9C]  0.03
14. CGCAGAGCUCAACACAGCGUGGCAAAGUGGCUGUGGCUACACUGCC [G1C G40C]  0.03
15. CGCAGAGCUCAACACAGCGUGGCAAAGUGGCUGUGGCUAAACUGCC [G1C G40A]  0.03
16. CGCAGAGCUCAACACAGCGCGGCAAAGUGGCUGUGGCUAGACUGCC [G1C U20C]  0.04
17. UGCAGAGCUCAACACAGCGUGGCAAAGUGGCUGUGGUUAGACUGCC [G1U C37U]  0.04
18. UGCAGAGCUCAACACAGCGUGGCAAAGUGGCUGUGGCUAGAGUGCC [G1U C42G]  0.04
19. UGCAGAGCUCAACACAGCGUGGCAAAGUGGGUGUGGCUAGACUGCC [G1U C31G]  0.04
20. UGCAGAGCUCAGCACAGCGUGGCAAAGUGGCUGUGGCUAGACUGCC [G1U A12G]  0.04
21. CGCAGAGCUCAACACAGCGGGGCAAAGUGGCUGUGGCUAGACUGCC [G1C U20G]  0.05
22. UGCAGAGCUCAACACUGCGUGGCAAAGUGGCUGUGGCUAGACUGCC [G1U A16U]  0.05
23. CGCAGAGCUCAACACAGCGUGGCAAAGUGGCUGUGACUAGACUGCC [G1C G36A]  0.05
24. CGCAGAGCUCAACACAGCGAGGCAAAGUGGCUGUGGCUAGACUGCC [G1C U20A]  0.06
25. UGCAGAGCUCAACACAGCGUGGCAAAGUGGCUGUGGAUAGACUGCC [G1U C37A]  0.06
26. UGCAGAGCUCAACACAGCGUGGCAAAGUGGCUGUGGCUAGAUUGCC [G1U C42U]  0.06
27. UGCAGAGGUCAACACAGCGUGGCAAAGUGGCUGUGGCUAGACUGCC [G1U C8G]  0.06
28. UGCAGGGCUCAACACAGCGUGGCAAAGUGGCUGUGGCUAGACUGCC [G1U A6G]  0.07
29. UGCAGAGCUCAACACAGCGUGGCAAAGUGGCUGUGGCUAGAAUGCC [G1U C42A]  0.07
30. UGCAGAGCUCUACACAGCGUGGCAAAGUGGCUGUGGCUAGACUGCC [G1U A11U]  0.07
31. UGCAGAGCUCAACACAGCGUGGCAAAGUGGUUGUGGCUAGACUGCC [G1U C31U]  0.07
32. UGCAGAGCUCAACACAGCGUGGCAAAGUGGAUGUGGCUAGACUGCC [G1U C31A]  0.07
33. UGCAGAGAUCAACACAGCGUGGCAAAGUGGCUGUGGCUAGACUGCC [G1U C8A]  0.08
34. UGCAGAGCUCAACACCGCGUGGCAAAGUGGCUGUGGCUAGACUGCC [G1U A16C]  0.08
35. UGCAGAGCUCAUCACAGCGUGGCAAAGUGGCUGUGGCUAGACUGCC [G1U A12U]  0.08
36. UGCAGAGCUCAACACAGCGUGGCAAAGUGGCUGUGGCUAGACUGGC [G1U C45G]  0.1
37. UGCAGAGUUCAACACAGCGUGGCAAAGUGGCUGUGGCUAGACUGCC [G1U C8U]  0.12
38. CGCAGAGCUCAACACAGCGUGUCAAAGUGGCUGUGGCUAGACUGCC [G1C G22U]  0.17
39. UGCAGAGCUCAACACAGCGUGGCAGAGUGGCUGUGGCUAGACUGCC [G1U A25G]  0.21
40. UGCAGAGCUCAACACAGCGUGGCACAGUGGCUGUGGCUAGACUGCC [G1U A25C]  0.21
41. UGCAGUGCUCAACACAGCGUGGCAAAGUGGCUGUGGCUAGACUGCC [G1U A6U]  0.22
42. UGCAGAGCUCAACACGGCGUGGCAAAGUGGCUGUGGCUAGACUGCC [G1U A16G]  0.22
43. UGCAGAGCUCAACACAGCGUGGGAAAGUGGCUGUGGCUAGACUGCC [G1U C23G]  0.24
44. UGGAGAGCUCAACACAGCGUGGCAAAGUGGCUGUGGCUAGACUGCC [G1U C3G]  0.25
45. UGCAGAGCUCAACACAGCGUGGCGAAGUGGCUGUGGCUAGACUGCC [G1U A24G]  0.25
46. UGCAGAGCUCAACACAGCGUGGCAAAGUGGCUGUGGCUAGACUGAC [G1U C45A]  0.26
47. UGUAGAGCUCAACACAGCGUGGCAAAGUGGCUGUGGCUAGACUGCC [G1U C3U]  0.27
48. UGCAGAGCUCAACACAGCGUGGCAAGGUGGCUGUGGCUAGACUGCC [G1U A26G]  0.31
49. UGCAGAGCUCAACACAGCGUGGUAAAGUGGCUGUGGCUAGACUGCC [G1U C23U]  0.31
50. UGCAGAGCUCAACACAGCGUGGCAACGUGGCUGUGGCUAGACUGCC [G1U A26C]  0.32
51. UGCAGAGCUCAACACAGCGUGGCUAAGUGGCUGUGGCUAGACUGCC [G1U A24U]  0.32
52. UGCAGAGCUCAACACAGCGUGGAAAAGUGGCUGUGGCUAGACUGCC [G1U C23A]  0.36
53. UGCAGAGCUCAACACAGCGUGGCCAAGUGGCUGUGGCUAGACUGCC [G1U A24C]  0.36
54. UGCAGAGCUCAACACAGCGUGGCAUAGUGGCUGUGGCUAGACUGCC [G1U A25U]  0.45
55. UGCAGCGCUCAACACAGCGUGGCAAAGUGGCUGUGGCUAGACUGCC [G1U A6C]  0.51
56. UGAAGAGCUCAACACAGCGUGGCAAAGUGGCUGUGGCUAGACUGCC [G1U C3A]  0.85
